This passage reports EC50 and % of radioactive counts bound results from patent US20060198851A1.

Assay [1] concerns the target synthetic Aβ1-42 (aggregated in the ELISAs) (human) (UniProt P05067). Kind of assay: ELISA on aggregated synthetic Aβ1-42; given as ED50. Background: ELISA stands for enzyme-linked immunosorbent assay.
For assay [2], the target named is soluble Aβ1-42, [125I]Aβ1-42 (human) (UniProt P05067). Kind of assay: capture radioimmunoassay, 50,000 CPM of 125I-Aβ 1-42 (or 125I-Aβ 1-40).

One may read the EC50 as the concentration that produces a half-maximal response.

In assay [1], monoclonal antibody 10D5 (IgG1) yielded an EC50 of 0.053 nM. Further, the % of radioactive counts bound at 10 µg/ml in assay [2] was 2%.

In turn, monoclonal antibody 12B4 (IgG2a) gave a concentration giving a half-maximal response (EC50) in assay [1] of 0.667 nM. The % of radioactive counts bound at 10 µg/ml in assay [2] was found to be 7%.
